Here are results for one molecule from patent US20230103618A1 (FRED HUTCHINSON CANCER CENTER, published 2023).

The assay deals with T1, TrkB.T1 peptide FVLFHKIPLDG (not fully specified).
T1 construct: also called target peptide
T1 peptide: FVLFHKIPLDG
In words: bead-based flow cytometry, peptide on beads. The source says: Murine monoclonal antibody (clone FH1D12) was generated at the Fred Hutchinson Antibody Technology Core Facility. Briefly, male and female 20-week-old C57BL6 mice that were characterized as genetic null for TrkB.T1 (Dorsey, S. G. et al.) In vivo restoration of physiological levels of truncated TrkB.T1 receptor rescues neuronal cell death in a trisomic mouse model. Neuron 51, 21-28 (2006)) were immunized with TrkB.T1 peptide Ac—C(dPEG4)[…]-OH (SEQ ID NO:1) maleimide coupled to KLH carrier protein. Following a 12+ week boosting protocol splenocytes were isolated from high titer mice and electrofused to a subclone of the P3x63-Ag8 myeloma cell line (BTX, Harvard Apparatus). Hybridomas secreting peptide specific antibody were identified and isolated using a ClonePix2 (Molecular Devices, CPII) colony picker. Antibodies from the picked clones were validated for peptide binding by flow cytometry using a cytometric bead array carrying the target peptide. Clone FH1D12 was subcloned (CPII) followed by validation for peptide binding by bead-based flow cytometry. Affinity purified IgG2b lambda from the hybridoma was further characterized by Western blot analysis and IHC tissue staining. Antibody development was performed in Holland Lab and with the Antibody Technology Resource (Fred Hutchinson Cancer Research Center).

No end group written: not given here.

B1: Murine monoclonal antibody (clone FH1D12) to TrkB.T1 (antibody, V domains shown)
VH: VQLQQSGPELARPWASVKISCQAFYTFSRGIHFDIRNTMYWIQWVKQRPGQGLEWIGAIYPGNGDPTYSQNFKDKATLTADKSSNTAYMQLSSLTSEDSAVYYCARYDYGGGFTYWGQGTLVTVSA
VL: QTVVTQESALTTSPGETVTLTCRSSTGAVTTSNYANWVQEKPDHLFTGLIGGINNRAPGVPARFSGSLIGDKAVLTITGAQTEDEAIYFCALWYSNHWVFGGGTKLTVL
notes: also called SPEH1_D12; antibody clone D12
For the molecule B1, the binding result is “binds”.
